Laboratory results reported in patent publication US9518268B2, “Drought tolerant transgenic plants and method of making same” (PURDUE RESEARCH FOUNDATION, priority 2013, dated 2016).

Test system: clade A PP2Cs
Assay: Yeast two-hybrid assay of PYL13 with clade A PP2Cs
Assay type: binding, Arabidopsis
Conditions: ABA-independent
Description: To investigate how PYL13 may function in plants, the interaction between PYL13 and clade A PP2Cs in yeast two-hybrid assays was examined, as shown in FIG. 3. […] PYL13 binds strongly with ABI1, ABI2, PP2CA, and HAI2 but weakly with HAB1 and HAI1 (FIG. 3A). […] PYL13 fused to the GAL4-DNA-binding domain (BD) was used as […], and PP2Cs fused to the GAL4-activating domain (AD) were used as baits. Interaction was determined by growth assay on media lacking His and His/Ade in the presence and absence of ABA. Dilutions (10^−1, 10^−2, and 10^−3) of saturated cultures were spotted onto the plates, which were photographed after 5 days.

B1: PYL13: Arabidopsis thaliana PYR/PYL/RCAR family protein PYL13, SEQ ID NO: 1 (protein, listed as Arabidopsis thaliana)
chain: MESSKQKRCRSSVVETIEAPLPLVWSILRSFDKPQAYQRFVKSCTMRSGGGGGKGGEGKGSVRDVTLVSGFPADFSTERLEELDDESHVMVVSIIGGNHRLVNYKSKTKVVASPEDMAKKTVVVESYVVDVPEGTSEEDTIFFVDNIIRYNLTSLAKLTKKMMK
binding in yeast two-hybrid assay (with ABI1, ABI2, PP2CA, and HAI2): strongly | binding in yeast two-hybrid assay (with HAB1 and HAI1): weakly
